Test results as given in patent publication US20050196753A1, “Human coactivator-associated arginine methyltransferase 1 (hCARM1)” (priority 2002, published 2005).

How the values were obtained:
[1] = test system: ER dependent promoter reporter in T47D cells; test: ER dependent luciferase reporter assay in transfected T47D cells; assay type: cell-based, human; conditions: hCARM1 co-transfected with GRIP-1 and ER, compared to GRIP-1 and ER alone
Experimental: Transfection protocol: Cells were plated in 12 well-dishes and allowed to adhere and grow overnight such that they were 80% confluent at the time of transfection. Tranfections were performed in triplicate using Lipofectamine 2000 (Gibco) and OptiMEM media. Total amount of DNA transfected was held constant within experiments. Six hrs. post transfection the Lipofectamine-DNA mix was removed and replaced with fresh media containing 10% serum. Hormone (dihydrotestosterone or estradiol) was added at this time and reporter activation measured after 24 hr.
Mouse CARM1 has been implicated as a coactivator of the androgen and estrogen receptor mediated signaling pathways along with the well-known steroid coactivator GRIP-1. The contribution, if any, of the human clone to these pathways was investigated. […] Thus, antagonizing endogenous CARM1 is deleterious to hormone dependent activation by endogeous ER.

Histone H3 = test: Methylation assay: methylating activity of purified hCARM1; assay type: biochemical; conditions: increasing amounts of purified enzyme, constant recombinant Histone H3 (FIG. 2)
Experimental: Methylation assay protocol: Reactions were performed in IX methylation buffer containing 20 mM Tris.HCl, pH 8.0, 200 mM NaCl and 0.4 mM EDTA. Reactions were assembled with 2.5 ug of Histone H3 and increasing amounts of hCARM1 (0.25 ug, 0.5 ug, 1.25 ug, 2.5 ug, 3.75 ug, 5 ug, or 7.5 ug). A mock reaction where hCARM1 was omitted was used as the negative control. Reactions were incubated at 30° C. for 1 hr. prior to loading on a 10-20% gradient SDS-PAGE. The gel was fixed, dried and exposed to film.
A methylation reaction was performed in order to evaluate whether the cloned full-length hCARM1 had methylating activity. Mouse CARM1 has been previously shown to specifically methylate Histone H3 in vitro and in vivo.

B1: hCARM1: cloned full-length human CARM1, produced in and purified from baculovirus infected insect cells; transfected as cDNA in cell assays (protein, UniProt Q86X55 1-608, looked up)
chain: MAAAAAAVGPGAGGAGSAVPGGAGPCATVSVFPGARLLTIGDANGEIQRHAEQQALRLEVRAGPDSAGIALYSHEDVCVFKCSVSRETECSRVGKQSFIITLGCNSVLIQFATPNDFCSFYNILKTCRGHTLERSVFSERTEESSAVQYFQFYGYLSQQQNMMQDYVRTGTYQRAILQNHTDFKDKIVLDVGCGSGILSFFAAQAGARKIYAVEASTMAQHAEVLVKSNNLTDRIVVIPGKVEEVSLPEQVDIIISEPMGYMLFNERMLESYLHAKKYLKPSGNMFPTIGDVHLAPFTDEQLYMEQFTKANFWYQPSFHGVDLSALRGAAVDEYFRQPVVDTFDIRILMAKSVKYTVNFLEAKEGDLHRIEIPFKFHMLHSGLVHGLAFWFDVAFIGSIMTVWLSTAPTEPLTHWYQVRCLFQSPLFAKAGDTLSGTCLLIANKRQSYDISIVAQVDQTGSKSSNLLDLKNPFFRYTGTTPSPPPGSHYTSPSENMWNTGSTYNLSSGMAVAGMPTAYDLSSVIASGSSVGHNNLIPLANTGIVNHTHSRMGSIMSTGIVQGSSGAQGSGGGSTSAHYAVNSQFTMGGPAISMASPMSIPTNTMHYGS
modifications: full-length
notes: cloned full-length human CARM1, produced in and purified from baculovirus infected insect cells; transfected as cDNA in cell assays
**Q.** Which “estradiol mediated induction of ER dependent luciferase reporter” value [1] does the source give for B1 here?
**A.** concentration dependent increase

**Q.** And the “methylation of Histone H3 by hCARM1” value (Histone H3)?
**A.** methylates Histone H3 efficiently
